1 molecule from patent US6989256 (UNIVERSITY OF MEDICINE AND DENTISTRY OF NEW JERSEY, dated 2006) can be followed below.

The assay has as its target T1, FLAG epitope-tagged Mtt1p (yeast (S. cerevisiae), UniProt P32644 1-1121, limits assumed).
T1 construct: Used as a yeast cytoplasmic extract, not as purified protein; also called Flag-Mtt1p; Modulator of Translation Termination
T1 sequence (looked up): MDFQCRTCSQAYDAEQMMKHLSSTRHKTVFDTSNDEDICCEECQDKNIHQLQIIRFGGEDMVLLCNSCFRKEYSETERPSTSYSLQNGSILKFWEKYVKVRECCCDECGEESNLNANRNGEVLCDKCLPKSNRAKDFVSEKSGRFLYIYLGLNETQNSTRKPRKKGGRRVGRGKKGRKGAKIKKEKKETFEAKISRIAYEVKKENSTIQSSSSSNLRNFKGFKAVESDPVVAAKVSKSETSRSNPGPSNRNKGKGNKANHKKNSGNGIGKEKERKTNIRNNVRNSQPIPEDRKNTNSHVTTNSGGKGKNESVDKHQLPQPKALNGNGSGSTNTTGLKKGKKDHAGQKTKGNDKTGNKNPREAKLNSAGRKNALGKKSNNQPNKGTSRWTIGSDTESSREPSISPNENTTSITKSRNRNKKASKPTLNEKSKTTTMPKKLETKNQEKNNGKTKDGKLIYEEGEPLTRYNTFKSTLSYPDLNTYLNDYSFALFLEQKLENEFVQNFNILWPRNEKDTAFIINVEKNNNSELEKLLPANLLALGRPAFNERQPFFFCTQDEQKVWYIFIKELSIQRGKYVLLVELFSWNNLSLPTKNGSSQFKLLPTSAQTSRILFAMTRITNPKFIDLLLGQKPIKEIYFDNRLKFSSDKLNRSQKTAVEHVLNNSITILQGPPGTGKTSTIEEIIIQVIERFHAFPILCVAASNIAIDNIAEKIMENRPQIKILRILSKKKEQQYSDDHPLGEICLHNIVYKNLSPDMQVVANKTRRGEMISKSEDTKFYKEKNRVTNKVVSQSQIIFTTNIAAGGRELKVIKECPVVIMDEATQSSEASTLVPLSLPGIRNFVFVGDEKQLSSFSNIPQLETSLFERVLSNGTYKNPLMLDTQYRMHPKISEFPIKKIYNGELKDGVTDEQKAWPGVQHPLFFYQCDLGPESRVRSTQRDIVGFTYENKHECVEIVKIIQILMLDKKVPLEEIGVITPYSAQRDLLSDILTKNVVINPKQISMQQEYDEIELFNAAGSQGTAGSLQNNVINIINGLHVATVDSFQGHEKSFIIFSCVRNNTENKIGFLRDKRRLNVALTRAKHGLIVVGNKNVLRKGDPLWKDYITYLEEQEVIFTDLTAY
Put plainly: GST pull-down from yeast cytoplasmic extract, anti-FLAG immunoblot. Here is the method:
Total RNA was prepared and subjected to RNA blotting analysis, using a probe for CYH2 mRNA. Figure 4: FIG. 4 Mtt1 interacts withe eRF3. Cytoplasmic extracts from a yeast strain BJ3505 transformed with either pG-1 (vector) or pG-1 FLAGMTT1 (Flag-Mtt1p) were prepared in IBTB and incubated with 30 μl GST, GST-eRF1. GST-eRF3, GST-eRF3NM or GST-eRF3C sepharose-protein complexes. The sepharose-protein complexes were washed 2 times in IBTB (see materials and methods), resuspended in SDS-PAGE loading buffer, separated on an 8% SDS-PAGE gel and immunoblotted using anti-FLAG antibody.
Since deleting the MTT1 gene also promotes nonsense suppression of the tyr7-1 and leu2-2 alleles, Mtt1p also interacts with the peptidyl release factors. To test this, eRF1 and eRF3 were individually expressed in *E. coli* as glutathione-S-transferase (GST) fusion proteins and purified using glutathione sepharose beads. The purified GST-RF (release factor) fusion proteins associated with the glutathione sepharose beads were added to a yeast cytoplasmic extract containing a FLAG epitope-tagged Mtt1p (see Experimental Procedures). Following incubation, the GST-RFs and associated proteins were purified by affinity chromatography and subjected to SDS-PAGE. Immunoblotting was performed and the presence of the Flag-Mtt1p was assayed using an antibody against the FLAG epitope.

B1: GST-eRF1 (other, yeast (S. cerevisiae), UniProt P12385 1-437, looked up)
chain: MDNEVEKNIEIWKVKKLVQSLEKARGNGTSMISLVIPPKGQIPLYQKMLTDEYGTASNIKSRVNRLSVLSAITSTQQKLKLYNTLPKNGLVLYCGDIITEDGKEKKVTFDIEPYKPINTSLYLCDNKFHTEVLSELLQADDKFGFIVMDGQGTLFGSVSGNTRTVLHKFTVDLPKKHGRGGQSALRFARLREEKRHNYVRKVAEVAVQNFITNDKVNVKGLILAGSADFKTDLAKSELFDPRLACKVISIVDVSYGGENGFNQAIELSAEALANVKYVQEKKLLEAYFDEISQDTGKFCYGIDDTLKALDLGAVEKLIVFENLETIRYTFKDAEDNEVIKFAEPEAKDKSFAIDKATGQEMDVVSEEPLIEWLAANYKNFGATLEFITDKSSEGAQFVTGFGGIGAMLRYKVNFEQLVDESEDEYYDEDEGSDYDFI
notes: also called GST-RF1; GST-RF; not shown: glutathione-S-transferase (GST) from vector pGEX2T
On to B1, for which the binding result is “no binding”.
